# Experimental data as given in US11306331B2, “Processes for the production of hydroxycinnamic acids using polypeptides having tyrosine ammonia lyase activity” (CysBio ApS, priority 2014, dated 2022).
# B1: RmXALLI: RmXAL expressed from a synthetic gene codon optimized for Lactococcus lactis (SEQ ID NO: 57) (protein)
# chain: MAPSVDSIATSVANSLSNGLHAAAAANGGDVHKKTAGAGSLLPTTETTQLDIVERILADAGATDQIKLDGYTLTLGDVVGAARRGRSVKVADSPHIREKIDASVEFLRTQLDNSVYGVTTGFGGSADTRTEDAISLQKALLEHQLCGVLPTSMDGFALGRGLENSLPLEVVRGAMTIRVNSLTRGHSAVRIVVLEALTNFLNHGITPIVPLRGTISASGDLSPLSYIAASITGHPDSKVHVDGKIMSAQEAIALKGLQPVVLGPKEGLGLVNGTAVSASMATLALTDAHVLSLLAQALTALTVEAMVGHAGSFHPFLHDVTRPHPTQIEVARNIRTLLEGSKYAVHHETEVKVKDDEGILRQDRYPLRCSPQWLGPLVSDMIHAHAVLSLEAGQSTTDNPLIDLENKMTHHGGAFMASSVGNTMEKTRLAVALMGKVSFTQLTEMLNAGMNRALPSCLAAEDPSLSYHCKGLDIAAAAYTSELGHLANPVSTHVQPAEMGNQAINSLALISARRTAEANDVLSLLLATHLYCVLQAVDLRAMEFEHTKAFEPMVTELLKQHFGALATAEVEDKVRKSIYKRLQQNNSYDLEQRWHDTFSVATGAVVEALAGQEVSLASLNAWKVACAEKAIALTRSVRDSFWAAPSSSSPALKYLSPRTRVLYSFVREEVGVKARRGDVYLGKQEVTIGTNVSRIYEAIKSGCIAPVLVKMMA
# modifications: RmXal coding sequence (codon optimized for Lactococcus lactis)
# B2: HaXAL2: tyrosine ammonia lyase derived from Herpetosiphon aurantiacus, protein GI 159898927, 552 aa (protein, listed as Herpetosiphon aurantiacus)
# chain: MRHQVTLTGAGLTIEDVVRVARHHQPVGLTDNPEILQRIEDSCAYINDAVKASKPVYGVTTGFGGMADVVISSEEAADLQNNAIWYHKTGAGKLLPLADVRAAMLLRANSHMRGVSGIRLEIIQRMMTFLNANVTPHVREFGSIGASGDLVPLISITGALLGTDPAFRVDFDGENIDCLEALERLNLPRLELLPKEGLAMMNGTSVMTGIASNVLHDARILLGLALNIHGLMIQGLQGTNQSFHPFIHQHKAHTGQVWAADHMLQILEGSALSRDELDGRHEYREGDLIQDRYSLRCLPQFLGPIIDGMAYITHHLRVEINSANDNPLINTEAGASYHGGNFLGQYIGVGMDQLRYYMGLMAKHLDVQIALLVSPQFNNGLSASLVGNTDRKVNMGLKGLQISGNSIMPILGFLGNSLADRFPTHAEQFNQNINSQGFGSANLARQTIETLQQYIAIALIFGVQAVDLRTFKRTGHYNAVETLSPMTAKLYSAMREVVGKPISHERPYIWNDNEQALEQHISAIVSDITNDGIIPQAIQETLDSLRSIILFA
# B3: RtXAL: previously described aromatic amino acid lyase of Rhodosporidium toruloides/Rhodotorula glutinis, protein GI 129593 (protein, UniProt P11544 1-716, looked up)
# Phenylalanine/tyrosine …: MAPSLDSISHSFANGVASAKQAVNGASTNLAVAGSHLPTTQVTQVDIVEKMLAAPTDSTLELDGYSLNLGDVVSAARKGRPVRVKDSDEIRSKIDKSVEFLRSQLSMSVYGVTTGFGGSADTRTEDAISLQKALLEHQLCGVLPSSFDSFRLGRGLENSLPLEVVRGAMTIRVNSLTRGHSAVRLVVLEALTNFLNHGITPIVPLRGTISASGDLSPLSYIAAAISGHPDSKVHVVHEGKEKILYAREAMALFNLEPVVLGPKEGLGLVNGTAVSASMATLALHDAHMLSLLSQSLTAMTVEAMVGHAGSFHPFLHDVTRPHPTQIEVAGNIRKLLEGSRFAVHHEEEVKVKDDEGILRQDRYPLRTSPQWLGPLVSDLIHAHAVLTIEAGQSTTDNPLIDVENKTSHHGGNFQAAAVANTMEKTRLGLAQIGKLNFTQLTEMLNAGMNRGLPSCLAAEDPSLSYHCKGLDIAAAAYTSELGHLANPVTTHVQPAEMANQAVNSLALISARRTTESNDVLSLLLATHLYCVLQAIDLRAIEFEFKKQFGPAIVSLIDQHFGSAMTGSNLRDELVEKVNKTLAKRLEQTNSYDLVPRWHDAFSFAAGTVVEVLSSTSLSLAAVNAWKVAAAESAISLTRQVRETFWSAASTSSPALSYLSPRTQILYAFVREELGVKARRGDVFLGKQEVTIGSNVSKIYEAIKSGRINNVLLKMLA
# How the values were obtained:
# [1] = tested on: L. lactis NZ9000ΔldhΔldhB; assay: Specific pHCA and CA productivity of L. lactis strains expressing TAL/PAL enzymes in CDM; type: cell-based, Lactococcus lactis; conditions: CDM
# Description: The synthetic RsXALI (protein GI 129592) and RmXALI (protein GI 126464011) genes, codon optimized for Lactococcus lactis (GeneArt), were cloned into the nisin inducible expression vector pNZ8048 (Kuipers et al., 1998) as follows: RsXALI (SEQ ID NO: 56) and RmXALI (SEQ ID NO: 57) genes and the vector were PCR amplified using the primers listed in Table 7, and were assembled in a single-tube isothermal reaction using the Gibson Assembly Master Mix (New England Biolabs). Reaction products were ethanol-precipitated and suspended in double distilled water before transformation into L. lactis by electroporation as described by Holo and Nes (1995). The synthetic genes encoding SeSam8, R_XAL, HaXAL1 and FjXAL described in a previous example above were amplified by PCR using the primer pairs listed in Table 1, digested with specific restriction enzymes, and cloned in-between the NcoI and XbaI restriction sites of pNZ8048. The plasmids were obtained and maintained in L. lactis NZ9000 (Kuipers et al., 1998) and the gene sequences of the different constructs were verified by sequencing.
# To assess pHCA production, TAL-expression vectors were transformed into a strain derived from NZ9000, but with deletion of the genes Idh and dhB (NZ9000ΔldhΔldhB). A control strain was also constructed by transformation of NZ9000ΔldhΔldhB with empty expression vector pNZ8048.
# For molecular biology procedures, L. lactis strains were cultivated as batch cultures (flasks) without aeration in M17 medium (Difco™, USA) supplemented with 0.5% glucose (w/v) at 30° C. To assess pHCA production, strains were grown as static cultures in chemically defined medium (CDM; Poolman and Konings, 1988) containing 1% glucose (wt/vol) without pH control (initial pH 6.5 or 7.0) and supplemented with 1.7 or 3.7 mM L-tyrosine. Plasmid selection was achieved by addition of 5 μg mL^−1 chloramphenicol to the growth medium. Growth was monitored by measuring OD600. For heterologous expression of cloned tyrosine ammonia lyases, L. lactis strains were grown in CDM and nisin (1.5 μg L^−1) was added at an OD600 of 0.3-0.4. Samples (1 mL) of cultures were collected at different points during growth; centrifuged (16,100×g, 10 min, 4° C.) and the supernatants stored at −20° C. until analysis by HPLC as described in a previous example above. […] The first six columns are results from media containing 1.7 mM tyrosine. The seventh and ninth columns represent samples from strains grown in media containing 3.7 mM tyrosine, and the eighth and ninth columns are data from media with 68.5 mM 3-(N-morpholino)propanesulfonic acid (MOPS) and initial pH adjusted to 7.0 rather than 6.5.
# [2] = tested on: E. coli BL21(DE3)pLysS cells; assay: Specific production of pHCA and CA by E. coli expressing TAL/PAL enzymes; type: cell-based, Escherichia coli; conditions: 24 h after supplementation, +/- standard deviation
# Procedure: Plasmids carrying the genes were transformed into electrocompetent E. coli BL21(DE3)pLysS cells (Life Technologies) and selected on LBplates containing 50 ug/mL streptomycin. The strains were grown in M9 minimal media containing glucose as a carbon source, and expression was induced by adding 1 mM IPTG at an optical density at 600 nm of 0.6. After three hours of growth at 30° C. the cultures were supplemented with 2 mM tyrosine, phenylalanine or histidine. After further 24 hours, samples were withdrawn for determination of the optical density at 600 nm and for the isolation of the supernatant.
# The concentration of pHCA and CA in the supernatant was quantified by high performance (HPLC) and compared to chemical standards. HPLC was done on a Thermo setup using a HS-F5 column and mobile phases: 5 mM ammonium formate pH 4.0 (A) and acetonitrile (B) at 1.5 mL min-1, using a gradient elution starting at 5% B. From 0.5 min after injection to 7 min, the fraction of B increased linearly from 5% to 60%, and between 9.5 min and 9.6 the fraction of B decreased back to 5%, and remaining there until 12m pHCA and CA were quantified by measuring absorbance at 333 nm and 277 nm, respectively. The production was tested without addition of precursors or the addition of either phenylalanine or tyrosine to the growth medium.
# The specific production was calculated as micromolar (μM) concentration per unit of optical density of the culture at 600 nm, and standard deviations were calculated based on triplicate experiments. HaXAL1, HaXAL2 and FjXAL are the most specific enzymes and those that reach the highest yields.
# [3] = tested on: Saccharomyces cerevisiae CEN.PK102-5B; assay: Specific production of pHCA and CA by S. cerevisiae expressing TAL enzymes; type: cell-based; conditions: 72 h, 30° C., +/- standard deviation
# Description: A number of the previously characterized enzymes were characterized when expressed in Saccharomyces cerevisiae. Genes encoding HaXAL1 and FjXAL were synthesized with codon optimization for S. cerevisiae available by GeneArt (Life Technologies), and were named HaXAL1 Sc and FjXALSc. Genes were amplified using the oligonucleotide (refer to specific name) shown in Table 6, and inserted by uracil-excision into the vector pCfB132 together with the PPGK1 promoter amplified by primers PPGK1_fw and PPGK1_rv (Jensen et al., 2014). The finished plasmids were transformed into Saccharomyces cerevisiae CEN.PK102-5B (MAT a ura3-52 his3Δ1 leu2-3/112 MAL2-8c SUC2) using a standard lithium acetate transformation protocol and selected for on synthetic drop-out media plates lacking uracil.
# Cells were grown in SC medium without uracil, and diluted into Delft medium or Feed-In-Time (FIT) medium (m2p-labs) supplemented with leucine and histidine. After 72 h of incubation at 30° C. with shaking, samples were taken for the analysis of optical density at 600 nm and for clarification of the supernatant, which was analyzed by HPLC as described in example 1. The specific production was calculated as micromolar (μM) concentration per unit of optical density of the culture at 600 nm and is shown in Table 4.
Molecule,production of CA [1],Specific production of CA ([2]; M9 + Phe (2 mM)),Specific production of pHCA ([2]; M9 + Phe (2 mM)),Specific production of CA ([2]; M9 + Tyr (2 mM)),Specific production of pHCA ([2]; M9 + Tyr (2 mM)),Specific production of CA ([3]; Delft + Tyr (10 mM)),Specific production of pHCA ([3]; Delft + Tyr (10 mM)),Specific production of CA ([3]; Delft medium),Specific production of pHCA ([3]; Delft medium),Specific production of CA ([3]; FIT + Tyr (10 mM)),Specific production of pHCA ([3]; FIT + Tyr (10 mM)),Specific production of CA ([3]; FIT medium),Specific production of pHCA ([3]; FIT medium)
B1,the only enzyme resulting in production of CA,,,,,,,,,,,,
B2,,0.4 ± 0.02 μM OD600-1,20 ± 4.4 μM OD600-1,0 ± 0 μM OD600-1,61 ± 9.7 μM OD600-1,0 ± 0 μM OD600-1,20 ± 6.3 μM OD600-1,0 ± 0 μM OD600-1,22 ± 5.2 μM OD600-1,0 ± 0 μM OD600-1,26 ± 11 μM OD600-1,0 ± 0 μM OD600-1,30 ± 16 μM OD600-1
B3,,180 ± 16 μM OD600-1,7.2 ± 1.3 μM OD600-1,5.9 ± 6.1 μM OD600-1,170 ± 10 μM OD600-1,21 ± 1.9 μM OD600-1,89 ± 13 μM OD600-1,18 ± 0.9 μM OD600-1,20 ± 0.8 μM OD600-1,57 ± 4.1 μM OD600-1,110 ± 8.8 μM OD600-1,88 ± 2 μM OD600-1,67 ± 4.3 μM OD600-1
